Legend:
[1] = target: JCV T-antigen origin-binding domain (OBD; residues 132-261) (JC virus); experiment: crystal structure; crystal form 2, space group I4_(1), 2.6 Å; 0.1 M Tris pH 8.5, 0.2 M LiSO4, 30% PEG 4000, 4 C; contacts with symmetry mates
[2] = target: JCV T-antigen origin-binding domain (OBD; residues 132-261) (JC virus); experiment: crystal structure; crystal form 1, space group C2, 1.64 Å, two molecules in the asymmetric unit; 0.1 M sodium citrate pH 5.6, 30% PEG 3350, 18 C; interfaces analysed with PISA
[3] = target: JCV T-antigen origin-binding domain (residues 132-261) with tartrate-modified Lys168 (crystal form 3) (JC virus); experiment: crystal structure; crystal form 3, space group P4_(1), 1.32 Å, one molecule in the asymmetric unit; 0.19 M sodium tartrate, 19% PEG 3350, 4 C; contacts with symmetry mates
[4] = target: T1, JCV T-antigen origin-binding domain (OBD) (JC virus (JCV), UniProt P03072 132-261); experiment: ITC; ITC (VP-ITC): 10 mM sodium phosphate pH 7.0, 50 mM NaCl; temperature not stated; OBD in syringe (~80 uM for Site II, 40 uM for Site I), DNA 1.5 uM / 1.0 uM; conditions: protein: recombinant; tags: N-terminal GST removed by thrombin; chain copies: 4; blunt
T1 sequence: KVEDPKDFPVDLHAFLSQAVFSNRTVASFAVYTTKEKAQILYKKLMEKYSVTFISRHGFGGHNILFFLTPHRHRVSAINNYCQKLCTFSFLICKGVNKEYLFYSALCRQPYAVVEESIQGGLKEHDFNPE

[5] = target: T1, JCV T-antigen origin-binding domain …; experiment: ITC; average of four titrations; titration shown in Fig. 4A ~278 nM; N = 4 OBDs per duplex; ITC (VP-ITC): 10 mM sodium phosphate pH 7.0, 50 mM NaCl; temperature not stated; OBD in syringe (~80 uM for Site II, 40 uM for Site I), DNA 1.5 uM / 1.0 uM; conditions: protein: recombinant; tags: N-terminal GST removed by thrombin; chain copies: 4; blunt

“JCV T-antigen origin-binding domain (OBD; residues 132-261) (domain or fragment)” showed a stoichiometry N [1] of 4 and a stoichiometry N [2] of 4.

Molecule “JCV T-antigen origin-binding domain (residues 132-261) with tartrate-modified Lys168 (crystal form 3) (domain or fragment)” has a stoichiometry N [3] of 4.

B1: JCV Site I 28 bp (dsDNA)
DNA 1: GCGTGGAGGCTTTTTAGGAGGCCAGGGA
DNA 2: TCCCTGGCCTCCTAAAAAGCCTCCACGC
In the case of B1, the Kd [4] is reported as 18.3 nM.

B2: JCV Site II 33 bp (dsDNA)
DNA 1: TACAGGAGGCCGAGGCCGCCTCCGCCTCCAAGC
DNA 2: GCTTGGAGGCGGAGGCGGCCTCGGCCTCCTGTA
With B2 the Kd [5] was 299 nM.

Reference: paper PMC3930596, “Insights into the Initiation of JC Virus DNA Replication Derived from the Crystal Structure of the T-Antigen Origin Binding Domain”
